Substitutions are numbered along the chain they refer to.
B1: 75110_09N20A (antibody, V domains shown)
VH: EVQLVESGGGLVQPGGSLRLSCAASGFTFSSYWMSWVRQAPGKGLEWVANINEDGSEKYYVDSVKGRFTISRDNAKNSLYLQMNSLRAEDTAVYYCVREGGQWLALDYWGQGTLVTVSS
VL: DIQMTQSPSSVSASVGDRVTITCRASQGISSWLAWYQQKPGKAPKLLIYAASSLQSGVPSSFSGSGSGTDFTLTINSLQPEDFATYYCQQANSFPWTFGQGTKVAIK
B2: 75110_09G15A (antibody, V domains shown)
VH: B1 VH with S31D, E53Q, Y60S, V93I, Y94F, V97A
VL: B1 VL with A50G, S61R, A84T, S93I, A105E
B3: 75110_07H07A (antibody, V domains shown)
VH: B1 VH with L4V, N52K, D54E
VL: B1 VL with A13G, Y49F, A50G, S61R, N76S, A105Q
B4: 75110_06K03A (antibody, V domains shown)
VH: QVQLQESGPGLVKPSETLSLTCTVSGGSISTYYWSWIRQPAGKGLEWIGRINTSGSTTYNPSLKSRVTMSVDTSKNQFSLKLSSVTAADTAVYYCARELERYYYYGMDVWGQGTTVTVSS
VL: DIQMTQSPSSLSASVGDRVTITCQASQDISNYLNWYQQKPGKAPKLLIYYASILETGVPSRFSGSGSGTDFTFTISSLQPEDIATYYCQQYDSLPLTFGGGTKVEIK
B5: 75110_06G04A (antibody, V domains shown)
VH: B4 VH with Q5L, T31S, N52Y, T53I, T58N, V71I, K75E, K81N, Y102P
VL: B4 VL with Y50N, I53T, S93N, I106F
B6: 75110_08D24A (antibody, V domains shown)
VH: B4 VH with T31G, Y32F, N52Y, G55E, S56N, T58N, E98D, L99R, R101G
VL: B4 VL with Y50A, I53N, L96I, G100Q, K103R, V104L
B7: 75110_06E14A (antibody, V domains shown)
VH: B4 VH with T31N, Y33F, N52Y, T53S, S56N, T58N, E98D, L99R, R101D
VL: B4 VL with Y50G, S63T, L96I, G100Q, K103R, V104L
B8: 75110_08M20A (antibody, V domains shown)
VH: B4 VH with G8D, T31S, N52Y, T53A, T58N, E98D, L99R, R101G
VL: B4 VL with N31K, K45N, Y50A, I53N, T85A, L96I, G100Q, K103R, V104L
B9: 75110_07B16A (antibody, V domains shown)
VH: QVQLQQWGAGLLKPSETLSLTCAVYGGSFSGYYWSWIRQSPGKGLEWIGEINQSGSTNYNPSLKSRVTISVDTSKDQFSLKLSSVTAADTAVYYCARVINWFDSWGQGSLVTVSS
VL: B1 VL with A50D, L54F, S61R, N76S, P80T, E81D, W96Y, V104L, A105E
B10: 75110_08H11A (antibody, V domains shown)
VH: EVQLVESGGGLVQPGGSLRLSCAASGFTFSSYDMHWVRQATGKGLEWVSTIGTAGDTYYPGSVKGRFTISRENAKNSLYLQMNSLRAGDTAVYYCARGGYSYYGMDVWGQGTTVTVSS
VL: EIVLTQSPGTLSLSPGERATLSCGASQSVSSTYLAWYQQKPGQAPRLLIYGASSRATGIPDRFSGSGSGTDFTLTISRLEPEDFAVYYCQQFGSSPFTFGPGTKVDIK
B11: 75110_08K12A (antibody, V domains shown)
VH: B10 VH with K75E, V92L, G99D, S101Y
VL: B10 VL with G24R, S54N, S94T
B12: 75110_10L22A (antibody, V domains shown)
VH: B10 VH with S84G, G99N, S101F, M105V
VL: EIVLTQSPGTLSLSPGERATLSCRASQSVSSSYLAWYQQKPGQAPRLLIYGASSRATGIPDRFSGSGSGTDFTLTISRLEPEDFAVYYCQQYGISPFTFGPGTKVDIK
B13: 75110_07E04A (antibody, V domains shown)
VH: B10 VH with A24V, N76K, S77F, S101Y
VL: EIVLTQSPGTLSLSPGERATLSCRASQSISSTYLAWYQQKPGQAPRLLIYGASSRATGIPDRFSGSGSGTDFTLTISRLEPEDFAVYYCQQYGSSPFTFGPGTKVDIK
B14: 75110_10N21A (antibody, V domains shown)
VH: B10 VH with A40V, S101Y
VL: B10 VL with G24R, V29F, S30I, T32S, E80D, F92S, S94N, I107V
B15: 75110_08H06A (antibody, V domains shown)
VH: B10 VH with S31N, S101D
VL: B10 VL with G24R, V29I, S30T, T32I, Q38R, F92Y
B16: 75110_05E13A (antibody, V domains shown)
VH: EVQLVESGGDLVKPGGSLRLSCAASGFSFSNAWMSWVRQAPGKGLEWVGRVESKTDGGTTDYAAPVKDRFTISRDDSKYTLYLQMNSLKTEDSAVYYCTIGGGFGLELYGFFDYWGQGTLVTVSS
VL: DIQMTQSPSTLSASVGDRVTITCRASQSISSWLAWYQQKPGKAPMLLIYKASSLESGVPSRFSGSGSGTEFTLTISSLQPDDFATYYCLQYNSYYTFGQGTKLEIK
notes: Tested as clonal hybridoma supernatant of an AlivaMab Mouse Kappa antibody (human variable regions, kappa; detected with anti-mouse Fc)
B17: 75110_05L07A (antibody, V domains shown)
VH: B1 VH with E53Q, E57D, A75V, M83I, V97A, A105T
VL: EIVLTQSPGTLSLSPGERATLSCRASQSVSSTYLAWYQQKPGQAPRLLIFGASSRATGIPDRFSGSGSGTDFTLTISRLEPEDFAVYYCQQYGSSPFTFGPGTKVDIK
notes: as for B16
B18: 75110_06C16A (antibody, V domains shown)
VH: QVQLQESGPGLVTPSETLSLSCTVSGGSISDYYWSWIRQPGGKGLEWIGRIYSSGSTNYNPSLKSRVTMSVDTSKNQFSLKLSSVTAADTAVYFCARDREDYYYYGMDVWGQGTTVTVSS
VL: B4 VL with Q27H, Y50A, I53N, T72S, S93H
notes: as for B16
B19: 75110_05G15A (antibody, V domains shown)
VH: QVQLQESGPGLVKPSQTLSLTCTVSGGSISSGGYFWSWIRQHPGKGLEWIGCIYYSGSTYYIPSLKSRVTISVDTSKNQFSLKLRSVTAADTAVYYCARDGYDYWYFDLWGRGTLVTVSS
VL: not shown
B20: 75110_05E05A (antibody, V domains shown)
VH: QVQLQESGPGLVKPSETLSLTCTVSGGSIGSYYWSWIRQPAGKGLEWIGRIYTSGSTNYNPSLKSRVTMSFDTSKNQFSLKLNSVTAADTAVYYCATDGGVGDSLDYWGQGTLVTVSS
VL: DIVMTQTPLSLPVTPGEPASISCRSSQSLLDSDDGNTYLDWYLQKPGQSPQLLIYTLSYRASGVPDRFSGSGSGTDFTLKISRVEAEDVGVYYCMQHIEFPFTFGPGTKVDIK
notes: as for B16
B21: 75110_06D16A (antibody, V domains shown)
VH: B9 VH with S40P, Q53H, D72V, D76N, I99L, S104P, S109T
VL: B1 VL with G28D, S30A, S31D, L54F, S61R, N76S, Y87F, W96Y, V104L, A105E
notes: as for B16

These binders were tested against T1, human CD4 on human PBMCs (human, UniProt P01730 26-458) (assay: FACS, clonal hybridoma supernatant on PBMCs).
T1 construct: whole, on cells; also called hCD4

| Binder | % CD4 Stain [%] | gMFI of CD4+ [gMFI] |
| --- | --- | --- |
| B1 | 37.5 | 227000 |
| B2 | 37.3 | 237000 |
| B3 | 37.1 | 204000 |
| B4 | 34 | 320000 |
| B5 | 34.8 | 307000 |
| B6 | 33.6 | 332000 |
| B7 | 31.7 | 225000 |
| B8 | 34.1 | 343000 |
| B9 | 37.3 | 189000 |
| B10 | 27.1 | 87000 |
| B11 | 34.6 | 175000 |
| B12 | 34.3 | 77400 |
| B13 | 36.1 | 141000 |
| B14 | 38.3 | 203000 |
| B15 | 28.1 | 88800 |

The binders below were run against T2, human CD4 on human PBMCs (human, UniProt P01730 26-458) (assay: FACS, clonal hybridoma supernatant on PBMCs).
T2 construct: whole, on cells; the CD4-positive gate was set with the control antibodies OKT4 and RPA-T4; also called hCD4

| Binder | % CD4 Stain [%] | gMFI of CD4+ [gMFI] |
| --- | --- | --- |
| B16 | 38.9 | 257000 |
| B17 | 37.9 | 156000 |
| B18 | 33.1 | 270000 |
| B19 | 31.6 | 326000 |
| B20 | 31.8 | 64000 |
| B21 | 39.2 | 253000 |

Source: patent US20220112288A1 (published 2022)
